Laboratory results as given in patent US20170044545, “APTAMER FOR BONDING TO AUTOTAXIN AND INHIBITING BIOLOGICAL ACTIVITY OF AUTOTAXIN, AND USE FOR SAME” (RIBOMIC INC., published 2017).

B1: SEQ 8 aptamer (ssRNA)
RNA: GGGUGGCAACAGGACAUGGAACGCGCCCCAACUGCUUGAAACAGGUUUUGCUGAGCAGUGAUGUGAGAUGCGUCUUCGUAC
modifications: 2'-F pyrimidines, 2'-OH purines
B2: SEQ 14 (ssRNA)
RNA: GGGCUAAACGCUCUGAGGGAAACAGGUUUUGCUCCUCGGAGCGUGGACGCCC
modifications: 2'-F pyrimidines, 2'-OH purines
B3: SEQ 16(2) (ssRNA)
RNA: UCUGAGGGAAACAGGUUUUGCUCCUCGGA
modifications: 2'-F all pyrimidines and G8; 2'-OMe G4 A5 G6 G7 A9 A11 A13 G20 G27 G28 A29; 2'-OH A10 G14 G15

These binders were tested against Autotaxin (ENPP2, NPP2) (Homo sapiens, UniProt Q13822 Q13822:36-863) (assay: inhibition).

Binder | IC50 [nM]
UGGGAAGGAAACAGGUUUUGCUCUUCACC (ssRNA, 2'-F pyrimidines, 2'-OH purines) [SEQ 53] | 30
UCUGAGGGAGACAGGUUUUGCUCCUCGGA (ssRNA, 2'-F pyrimidines, 2'-OH purines) [SEQ 34] | 340
UAGAGAUGGAAACAGGUUUUGCUCAUCUCA (ssRNA, 2'-F pyrimidines, 2'-OH purines) [SEQ 50] | 21
UGAGGGAAACAGGUUUUGCUCCUCG (ssRNA, 2'-F pyrimidines, 2'-OH purines) [SEQ 17] | 37
UCUGAGGGAAACAGGUUUUGCUCCUCGGA (mixed, as 16(4) with dG8) [SEQ 16(14)] | 6.3
UCUGAGGGAAACAGGUUUUGCUCCUCGGA (mixed, as 16(4) with dT19) [SEQ 16(16)] | 45
UCUGAGGGAAACAGGUUUUGCUCCUCGGA (mixed, as 16(43) with PS at A10) [SEQ 16(44)] | 2.8
UCUGAGGGAAACAGGUUUUGCUCCUCGGA (ssRNA, as 16(4) with 5' 80 kDa PEG (GL2-800TS)-ssH linker instead of 5' idT) [SEQ 16(9)] | 32
UCUGAGGGAAACAGGUUUUGCUCCUCGGA (mixed, as 16(21) with dC23 dC26) [SEQ 16(38)] | 1.3
UCUGAGGGAAACAGGUUUUGCUCCUCGGA (mixed, as 16(21) with dC23 dC24 dC26) [SEQ 16(33)] | 0.6
CUGAGGGAAACAGGUUUUGCUCCUCGG (ssRNA, 2'-F pyrimidines, 2'-OH purines) [SEQ 18] | 34
UCUGAGGGAAACAGGUUUUGCUCCUCGGA (mixed, as 16(38) with 5' 40 kDa PEG (GL2-400GS2)-ssH linker instead of 5' idT) [SEQ 16(39)] | 3.8
UCUGAGGGAAACAGGUUUUGCUCCUCGGA (mixed, as 16(4) with dC23 dC24) [SEQ 16(12)] | 37
UCUGAGGGUAACAGGUUUUGCUCCUCGGA (ssRNA, 2'-F pyrimidines, 2'-OH purines) [SEQ 40] | 49
B1 | 49
UCUGAGGGAAACAGGUUUUGCUCCUCGGA (mixed, as 16(47) with PS at A10 and 2'-OMe C2 U3) [SEQ 16(55)] | 0.4
UCUGAGGGAAACAGGUUUUGCUCCUCGGA (mixed, as 16(21) with 5' 80 kDa PEG (GL4-800GS2)-ssH linker instead of 5' idT) [SEQ 16(45)] | 13
CGAGGGAAACAGGUUUUGCUCCUCG (ssRNA, 2'-F pyrimidines, 2'-OH purines) [SEQ 19] | 36
UCUGAGGGAAACAGGUUUUGCUCCUCGGA (mixed, as 16(21) with dT1 dC23 dC26) [SEQ 16(47)] | 2.4
UCUGAGGGAAACAGGUUUUGCUCCUCGGA (mixed, as 16(4) with dT17) [SEQ 16(18)] | 29
ACUGCUUGAAACAGGUUUUGCUGAGCAGU (ssRNA, 2'-F pyrimidines, 2'-OH purines) [SEQ 24] | 33
UCUGAGGGAAACAGGUUUUGCUCCUCGGA (mixed, as 16(4) with dT18) [SEQ 16(17)] | 46

Binder | IC50 [nM]
UCUGAGGGAAACAGGUUUUGCUCCUCGGA (mixed, as 16(49) with 2'-OMe C2 U3 U22 C24 U25) [SEQ 16(65)] | 0.3
UCUGAGGGUAACAGGUUAUGCUCCUCGGA (ssRNA, 2'-F pyrimidines, 2'-OH purines) [SEQ 26] | 510
AGGGAAACAGGUUUUGCUCCU (ssRNA, 2'-F pyrimidines, 2'-OH purines) [SEQ 21] | 710
UCUGAGGGAAACAGGUUUUGCUCCUCGGA (ssRNA, as 16(4) with PS at A10) [SEQ 16(7)] | 7.3
UCUGAGGGAAACAGGUUUUGCUCCUCGGA (ssRNA, 2'-F pyrimidines, 2'-OH purines) [SEQ 16] | 12
UCUGAGGGAAACAGGUUUCGCUCCUCGGA (ssRNA, 2'-F pyrimidines, 2'-OH purines) [SEQ 32] | 55
UCUGAGGGAAACAGGUUUUGCUCCUCGGA (mixed, as 16(47) with 5' 80 kDa PEG (GL2-800GS2)-ssH linker instead of 5' idT) [SEQ 16(48)] | 7.8
UCUGAGGGAAACAGGUUUUGCUCCUCGGA (ssRNA, as 16(4) with 5' 40 kDa PEG (GL2-400TS)-ssH linker instead of 5' idT) [SEQ 16(8)] | 42
UCUGAGGGAAACAGGUUUUGCUCCUCGGA (ssRNA, 2'-F all pyrimidines; 2'-OMe G4 A5 G6 G7 G27 G28 A29; other purines 2'-OH) [SEQ 16(1)] | 17
UCUGAGGGAAACAGGUUUUGCUCCUCGGA (mixed, as 16(47) with dA10 and phosphorodithioate at A10) [SEQ 16(68)] | 1.7
UCUGAGGGAAACAGGUUUUGCUCCUCGGA (mixed, as 16(21) with 5' 80 kDa PEG (GL2-800GS2)-ssH linker instead of 5' idT) [SEQ 16(43)] | 3
UCCGAGGGAAACAGGUUUUGCUCCUCGCA (ssRNA, 2'-F pyrimidines, 2'-OH purines) [SEQ 47] | 66
B2 | 26
UCUGAGGGAAACAGGUUUUGCUCCUCGGA (mixed, as 16(48) with PS at A10) [SEQ 16(49)] | 1.6
UCUGAGGGAAACAGGUUUUGCUCCUCGGA (mixed, as 16(32) with 5' 40 kDa PEG (GL2-400GS2)-ssH linker instead of 5' idT) [SEQ 16(34)] | 4.2
UCUGAGGGAAACAGGUUUUGCUCCUCGAA (ssRNA, 2'-F pyrimidines, 2'-OH purines) [SEQ 45] | 29
UCUGAGGGAAACAGGUUUUGCUCCUCGGA (mixed, as 16(21) with dT3) [SEQ 16(42)] | 1
UCUGAGGGAAACAGGUUUUGCUCCUCGGA (mixed, as 16(4) with dG14 dG15) [SEQ 16(6)] | 5.9
UCUGAGGGAAACAGGUUUUGCUCCUCGGA (mixed, as 16(21) with dC2) [SEQ 16(41)] | 2.2
UCUGAGGGAAACAGGUUUUGCUCCUCGGA (mixed, as 16(4) with dG14) [SEQ 16(5)] | 6.7
UCUGAGGGAAACAGGCUUUGCUCCUCGGA (ssRNA, 2'-F pyrimidines, 2'-OH purines) [SEQ 31] | 130
UCUGAGGGAAACAGGUUUUGCUCCUCGGA (mixed, as 16(4) with dT25 dC26) [SEQ 16(11)] | 27

Binder | IC50 [nM]
UCUGAGGGAAACAGGUUUUGCUCCUCGGA (ssRNA, as 16(2) + 5' and 3' idT (G14 printed lower case, probably typo)) [SEQ 16(4)] | 17
GAGGGAAACAGGUUUUGCUCCUC (ssRNA, 2'-F pyrimidines, 2'-OH purines) [SEQ 20] | 100
UUCGAGGGAAACAGGUUUUGCUCCUCAAA (ssRNA, 2'-F pyrimidines, 2'-OH purines) [SEQ 52] | 59
UCUGAGGGAAACAGGUUUUGCUCCUCGGA (mixed, as 16(4) with dC21) [SEQ 16(15)] | 77
UCUGGGGGAAACAGGUUUUGCUCCCCGGA (ssRNA, 2'-F pyrimidines, 2'-OH purines) [SEQ 44] | 38
UCUGAGGGAAACAGGUUUUGCUCCUCGGA (mixed, as 16(4) with dT1 dC2 dT3) [SEQ 16(10)] | 21
UCUGAGGGAAACAGGUUUUGCUCCUCGGA (ssRNA, as 16(1) + 5' and 3' idT) [SEQ 16(3)] | 10
UCUGAGGGAAACAGGUUUUGCUCCUCGGA (mixed, as 16(45) with PS at A10) [SEQ 16(46)] | 2
UCUGAGGGAAACAGGUCUUGCUCCUCGGA (ssRNA, 2'-F pyrimidines, 2'-OH purines) [SEQ 41] | 43
UCUGAGGGAAACAGGUUUUGCUCCUCGGA (mixed, as 16(33) with PS at A10) [SEQ 16(37)] | 0.25
UCUGAGGGAAACAGGUUUUGCUCCUCGGA (mixed, as 16(21) with dT1) [SEQ 16(40)] | 0.9
UCUGAGGGAAACAGGUUUUGCUCCUCGGA (mixed, as 16(33) with 5' 40 kDa PEG (GL2-400GS2)-ssH linker instead of 5' idT) [SEQ 16(35)] | 3
UCUGAGGGAAACAGGUUUUGCUCCUCGGA (mixed, as 16(4) with dT22) [SEQ 16(13)] | 52
UCUGAGGGGAACAGGUUUUGCUCCUCGGA (ssRNA, 2'-F pyrimidines, 2'-OH purines) [SEQ 33] | 690
B3 | 22
UCCGAGGGAAACAGGUUUUGCUCCUCGGA (ssRNA, 2'-F pyrimidines, 2'-OH purines) [SEQ 29] | 53
UCUGAGGGAAACAGGUUUUGCUCCUCAGA (ssRNA, 2'-F pyrimidines, 2'-OH purines) [SEQ 30] | 50
UCUGAGGGAAACAGGUUUUGCUCCUCGGA (mixed, as 16(32) with PS at A10) [SEQ 16(36)] | 0.3
UUUGAAGGAAACAGGUUUUGCUCUUCGAG (ssRNA, 2'-F pyrimidines, 2'-OH purines) [SEQ 51] | 85
CCGCUCUGAGGGAAACAGGUUUUGCUCCUCGGAGCGG (ssRNA, 2'-F pyrimidines, 2'-OH purines) [SEQ 15] | 7
